Results published in article PMC4735030.

Target: porcine colonic mucins (porcine)
Experiment: SPR

Kd: 0.0982 µM
koff: 0.00279 s⁻¹
kon: 28400 M⁻¹ s⁻¹
Substance: recombinant BL0675 A type with a C-terminal 6 x His tag (natural protein)
